Laboratory results taken from patent US11667688B2, “Glucagon derivative and a composition comprising a long acting conjugate of the same” (HANMI PHARM. CO., LTD., priority 2015, dated 2023).
Bridge positions count the residues as written; N and C are the ends. Square brackets hold non-standard residues; d marks the D form. Ends that are not written are not given here. Aib = CC(C)(N)C(=O)O

target: T1, human glucagon receptors (Homo sapiens, UniProt P47871); assay: cAMP activity of glucagon derivatives in CHO cell line transfected with human glucagon receptor (LANCE cAMP kit); type: cell-based; details: cAMP EC50 compared with that of native glucagon; CHO cells with human glucagon receptor
T1 construct: a region corresponding to Open Reading Frame (ORF) in the cDNA; expressed in transfected cells
Method: PCR was performed using a region corresponding to Open Reading Frame (ORF) in the cDNA (OriGene Technologies, Inc., USA) of human glucagon receptor gene as a template along with the following forward and reverse primers (SEQ ID NOS: 47 and 48, respectively), which include each of the EcoRI and XhoI restriction sites.
The PCR product was cloned into a known animal cell expression vector, x0GC/dhfr, to prepare a recombinant vector x0GC/GCGR.
CHO DG44 cell line cultured in DMEM/F12 (10% FBS) medium was transfected with the recombinant vector x0GC/GCGR using LIPOFECTAMINE®, and cultured in a selection medium containing G418 (1 mg/mL) and methotraxate (10 nM).
Specifically, the transfected cell line was subcultured 3 to 4 times a week, aliquoted into a 384-well plate in an amount of 6×10^3 cell lines/well, and cultured for 24 hours. Native glucagon and glucagon derivatives were suspended in Hank's balanced salt solution (HBSS) buffer containing 0.5 mM of 3-isobutyl-1-methylxanthine (IBMX), 0.1% bovine serum albumin (BSA), and 5 mM 4-(2-hydroxyethyl)-1-piperazineethanesulfonic acid (HEPES) with the culture cells, at concentrations of 200 nM and 1600 nM, respectively, continuously subjected into a 4-fold dilution 10 times, applied to a cAMP assay kit (LANCE cAMP 384 kit, PerkinElmer), and added to the cultured cells, and their fluorescence value was measured.

T1 sequence (P47871 26-477): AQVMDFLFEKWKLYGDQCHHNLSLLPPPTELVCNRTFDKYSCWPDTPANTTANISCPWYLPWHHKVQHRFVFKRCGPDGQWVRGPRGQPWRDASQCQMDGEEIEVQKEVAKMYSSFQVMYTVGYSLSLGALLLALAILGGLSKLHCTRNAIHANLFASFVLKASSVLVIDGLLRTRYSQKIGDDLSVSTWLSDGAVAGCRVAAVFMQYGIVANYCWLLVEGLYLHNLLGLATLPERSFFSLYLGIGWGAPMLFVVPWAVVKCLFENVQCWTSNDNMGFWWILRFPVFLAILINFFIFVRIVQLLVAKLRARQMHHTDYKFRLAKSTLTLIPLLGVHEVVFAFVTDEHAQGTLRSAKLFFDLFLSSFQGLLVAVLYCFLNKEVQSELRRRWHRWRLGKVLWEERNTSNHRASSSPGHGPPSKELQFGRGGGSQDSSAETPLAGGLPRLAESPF

Substance	In vitro Activity (Relative Activity of SEQ ID NO: 1, %) [%]
YXQGTFVSDYSKYLDERRAKDFVQWLMNTC (Y[Aib]QGTFVSDYSKYLDERRAKDFVQWLMNTC; bridge 16-20) [SEQ ID NO: 40, glucagon derivative, X = Aib]	40.8
YXQGTFTSDYSKYLDSCDAQDFVVWLINT (Y[Aib]QGTFTSDYSKYLDSCDAQDFVVWLINT) [SEQ ID NO: 9, glucagon derivative, X = Aib]	<0.1
YXQGTFTSDYSKYLDEKCAKEFVQWLMNT [SEQ ID NO: 11] (Y[Aib]QGTFTSDYSKYLDEKCAKEFVQWLMNT; not fully specified) [glucagon derivative, X = Aib]	4.6
WXQGTFVSDYSKYLDECRAKDFVQWLMNT (W[Aib]QGTFVSDYSKYLDECRAKDFVQWLMNT; bridge 16-20) [SEQ ID NO: 28, glucagon derivative, X = Aib]	<0.1
YXQGTFVSDYSKYLDECRAKDFVQWLMNT (Y[Aib]QGTFVSDYSKYLDECRAKDFVQWLMNT; bridge 16-20) [SEQ ID NO: 27, glucagon derivative, X = Aib]	93.6
YXQGTFTSDYSKCLDEKRAKEFVQWLMNT (Y[Aib]QGTFTSDYSKCLDEKRAKEFVQWLMNT; bridge 16-20) [SEQ ID NO: 24, glucagon derivative, X = Aib]	58.0
YXQGTFTSDYSKYLDECRAKEFVQWLMNT (Y[Aib]QGTFTSDYSKYLDECRAKEFVQWLMNT; bridge 16-20) [SEQ ID NO: 20, glucagon derivative, X = Aib]	299.7
YXQGTFTSDYSKYLDSRRAQDFVQWLMNT (Aib at position 2; glucagon derivative; (2) Xaa is aminoisobutyric acid (Aib)) [SEQ ID NO: 33, glucagon derivative, X = Aib]	108.2
HSQGTFTSDYSKYLDCERAQDFVQWLMNT (glucagon derivative) [SEQ ID NO: 3]	6.1
YXQGTFTSDYSKYLDEKRAKCFVQWLMNT (Y[Aib]QGTFTSDYSKYLDEKRAKCFVQWLMNT; bridge 16-20) [SEQ ID NO: 25, glucagon derivative, X = Aib]	46.9
YXQGTFTSDYSKYLDEKCAKEFVQWLMNT [SEQ ID NO: 21] (Y[Aib]QGTFTSDYSKYLDEKCAKEFVQWLMNT; bridge 16-20) [glucagon derivative, X = Aib]	57.8
HSQGTFTSDYSKYLDCDRAQDFVQWLMNT (glucagon derivative) [SEQ ID NO: 2]	0.6
YXQGTFTSDYSKYCDERRAKEFVQWLMNT (Y[Aib]QGTFTSDYSKYCDERRAKEFVQWLMNT; bridge 16-20) [SEQ ID NO: 35, glucagon derivative, X = Aib]	17.7
YXQGTFTSDYSKYLDCKRAKEFVQWLMNT [SEQ ID NO: 14] (Y[Aib]QGTFTSDYSKYLDCKRAKEFVQWLMNT; not fully specified) [glucagon derivative, X = Aib]	18.1
YXQGTFTSDYSKYLDSCDAQDFVQWLINT (Y[Aib]QGTFTSDYSKYLDSCDAQDFVQWLINT) [SEQ ID NO: 8, glucagon derivative, X = Aib]	<0.1
YXQGTFTSDYSKYLCEKRAQDFVVWLMNT (Y[Aib]QGTFTSDYSKYLCEKRAQDFVVWLMNT) [SEQ ID NO: 15, glucagon derivative, X = Aib]	1.1
YXQGTFTSDCSKYLDERRAKEFVQWLMNT (Y[Aib]QGTFTSDCSKYLDERRAKEFVQWLMNT; bridge 16-20) [SEQ ID NO: 36, glucagon derivative, X = Aib]	9.9
YXQGTFTSDYSKYLDCKRAKEFVQWLMNT (Y[Aib]QGTFTSDYSKYLDCKRAKEFVQWLMNT; bridge 17-21) [SEQ ID NO: 31, glucagon derivative, X = Aib]	6.3
HSQGTFTSDYSKYLDSCEADDFVQWLMNT (glucagon derivative) [SEQ ID NO: 6]	<0.1

Substance	In vitro Activity (Relative Activity of SEQ ID NO: 1, %) [%]
WXQGTFTSDYSKYLDECRAKDFVQWLMNT (W[Aib]QGTFTSDYSKYLDECRAKDFVQWLMNT; bridge 16-20) [SEQ ID NO: 26, glucagon derivative, X = Aib]	1.0
YXQGTFTSDYSKYLDSCDADDFVVWLINT (Y[Aib]QGTFTSDYSKYLDSCDADDFVVWLINT) [SEQ ID NO: 10, glucagon derivative, X = Aib]	<0.1
YXQGTFTSDYSKYLDSRRACDFRLWLMNT (Y[Aib]QGTFTSDYSKYLDSRRACDFRLWLMNT) [SEQ ID NO: 18, glucagon derivative, X = Aib]	<0.1
WXQGTFTSDYSKCLDERRAKDFVQWLMNT (W[Aib]QGTFTSDYSKCLDERRAKDFVQWLMNT; bridge 16-20) [SEQ ID NO: 30, glucagon derivative, X = Aib]	0.3
YXQGTFTSDCSKYLDSRRAQDFVQWLMNT (Y[Aib]QGTFTSDCSKYLDSRRAQDFVQWLMNT) [SEQ ID NO: 43, glucagon derivative, X = Aib]	1.6
HSQGTFTSDYSKYLDSCEAQDFVQWLMNT (glucagon derivative) [SEQ ID NO: 5]	0.3
YXQGTFTSDYSKYLDCVRAQDFVQWLMRT (Y[Aib]QGTFTSDYSKYLDCVRAQDFVQWLMRT) [SEQ ID NO: 17, glucagon derivative, X = Aib]	23.2
HSQGTFTSDYSKYLDSCDAQDFVQWLMNT (glucagon derivative) [SEQ ID NO: 4]	<0.1
WXQGTFTSDYSKYCDERRAKEFVQWLMNT (W[Aib]QGTFTSDYSKYCDERRAKEFVQWLMNT; bridge 16-20) [SEQ ID NO: 34, glucagon derivative, X = Aib]	0.2
YXQGTFCSDYSKYLDERRAKDFVQWLMNT (Y[Aib]QGTFCSDYSKYLDERRAKDFVQWLMNT; bridge 16-20) [SEQ ID NO: 41, glucagon derivative, X = Aib]	45.2
YXQGTFTSDYSKYLDCRRAQVFVQWLMRT (Y[Aib]QGTFTSDYSKYLDCRRAQVFVQWLMRT) [SEQ ID NO: 16, glucagon derivative, X = Aib]	4.2
YXQGTFTSDYSKYLDSRRAQDFVQWLMNTC (Aib at position 2; glucagon derivative; (2) Xaa is aminoisobutyric acid (Aib)) [SEQ ID NO: 44, glucagon derivative, X = Aib]	75.4
YXQGTFTSDYSCYLDSRRAQDFVQWLMNT (Y[Aib]QGTFTSDYSCYLDSRRAQDFVQWLMNT) [SEQ ID NO: 13, glucagon derivative, X = Aib]	5.2
YXQGTFCSDYSKYLDSRRAQDFVQWLMNT (Y[Aib]QGTFCSDYSKYLDSRRAQDFVQWLMNT) [SEQ ID NO: 42, glucagon derivative, X = Aib]	37.9
YSQGTFTSDYSKYLDSCEADDFVQWLMNT (glucagon derivative) [SEQ ID NO: 7]	<0.1
YXQGTFTSDYSKYCDEKRAKEFVQWLMNT (Y[Aib]QGTFTSDYSKYCDEKRAKEFVQWLMNT; bridge 16-20) [SEQ ID NO: 23, glucagon derivative, X = Aib]	76.8
YXQGTFTSDYSKYLDERRAKEFVQWLMNTC (Y[Aib]QGTFTSDYSKYLDERRAKEFVQWLMNTC; bridge 16-20) [SEQ ID NO: 37, glucagon derivative, X = Aib]	225.5
-SQGTFTSDYSKYLDECRAKEFVQWLMNT (bridge 15-19; also: name begins with '-': N-terminal residue before chain not given here) [SEQ ID NO: 32, glucagon derivative, no residue at position 1]	0.7
YXQGTFCSDYSKYLDERRAKEFVQWLMNT (Y[Aib]QGTFCSDYSKYLDERRAKEFVQWLMNT; bridge 16-20) [SEQ ID NO: 38, glucagon derivative, X = Aib]	167.3
